The conditions of this series: whole UniProt chain shown; for Tm / unfolding enthalpy (calorimetric) / unfolding enthalpy (van 't Hoff) / heat capacity change of unfolding: Thermal.
[1] abbreviates: Bos taurus, pH 7.2, DSC, phosphate 20 mM, reversible: yes (partial).
Setting [2] is: Bos taurus, pH 7.4, DSC, potassium phosphate 20 mM, reversible: Yes (65%).
Where [3] appears, read: Bos taurus, pH 6, DSC, Sodium phosphate 50 mM, NaCl 200 mM, reversible: yes.
Where [4] appears, read: Bos taurus, pH 6.7, DSC, phosphate 10 mM, MgCl2 0.5 mM, reversible: No.
[5] abbreviates: Comamonas testosteroni, pH 7, 25 °C, Urea, Fluorescence, phosphate 25 mM, reversible: yes.

“And” between values parts separate entries of the source, which are not always exact repeats. Equal values may be shown once.

B1: NADP-dependent isopropanol dehydrogenase wild type, P25984 (protein)
chain: MKGFAMLGINKLGWIEKERPVAGSYDAIVRPLAVSPCTSDIHTVFEGALGDRKNMILGHEAVGEVVEVGSEVKDFKPGDRVIVPCTTPDWRSLEVQAGFQQHSNGMLAGWKFSNFKDGVFGEYFHVNDADMNLAILPKDMPLENAVMITDMMTTGFHGAELADIQMGSSVVVIGIGAVGLMGIAGAKLRGAGRIIGVGSRPICVEAAKFYGATDILNYKNGHIVDQVMKLTNGKGVDRVIMAGGGSETLSQAVSMVKPGGIISNINYHGSGDALLIPRVEWGCGMAHKTIKGGLCPGGRLRAEMLRDMVVYNRVDLSKLVTHVYHGFDHIEEALLLMKDKPKDLIKAVVIL
Broadly, the Tm is the temperature at the midpoint of the melting transition. B1: the Tm (Clostridium beijerinckii, pH 6.8, CD, Na/K phosphate 50 mM) was 65.1 °C.

B2: Beta-glucanase wild type, K0A689 (protein)
chain: MKRVLLILVTGLFMSLFAVTSTASAQTGGSFFDPFNGYNSGFWQKADGYSNGNMFNCTWRANNVSMTSLGEMRLALTSPSYNKFDCGENRSVQTYGYGLYEVRMKPAKNTGIVSSFFTYTGPTDGTPWDEIDIEFLGKDTTKVQFNYYTNGAGNHEKIVDLGFDAANAYHTYAFDWQPNSIKWYVDGQLKHTATNQIPTTPGKIMMNLWNGTGVDEWLGSYNGVNPLYAHYDWVRYTKK
For the protein B2, the midpoint of thermal melting (Tm) (Bacillus tequilensis, pH 6.5, Activity, phosphate buffer) was 62 °C.

B3: Alpha-crystallin A chain wild type, P02470 (protein)
chain: MDIAIQHPWFKRTLGPFYPSRLFDQFFGEGLFEYDLLPFLSSTISPYYRQSLFRTVLDSGISEVRSDRDKFVIFLDVKHFSPEDLTVKVQEDFVEIHGKHNERQDDHGYISREFHRRYRLPSNVDQSALSCSLSADGMLTFSGPKIPSGVDAGHSERAIPVSREEKPSSAPSS
Consider B3, for which the unfolding free energy (Bos taurus, pH 5, 20 °C, Urea, Fluorescence, Sodium acetate 50 mM) is 8.46 kcal/mol. Also, under setting [1], the midpoint of thermal melting (Tm) stood at 45.6 °C, the “unfolding enthalpy (calorimetric)” value was 98 kcal/mol and the “unfolding enthalpy (van 't Hoff)” value amounted to 91 kcal/mol. Also, under setting [2], the Tm was 59.8 °C, the “heat capacity change of unfolding” value is 1.36 kcal/mol/K, the “unfolding enthalpy (calorimetric)” value was 80.3 kcal/mol and the “unfolding enthalpy (van 't Hoff)” value came out at 78.6 kcal/mol.

B4: Ribonuclease pancreatic wild type, P61823 (protein)
chain: MALKSLVLLSLLVLVLLLVRVQPSLGKETAAAKFERQHMDSSTSAASSSNYCNQMMKSRNLTKDRCKPVNTFVHESLADVQAVCSQKNVACKNGQTNCYQSYSTMSITDCRETGSSKYPNCAYKTTQANKHIIVACEGNPYVPVHFDASV
Take B4: under setting [3], the midpoint of thermal melting (Tm) was found to be 47.7 °C, the “heat capacity change of unfolding” value came out at 2 kcal/mol/K and the “unfolding enthalpy (calorimetric)” value was 107 kcal/mol.

B5: Tubulin--tyrosine ligase wild type, P38584 (protein)
chain: MYTFVVRDENSSVYAEVSRLLLATGHWKRLRRDNPRFNLMLGERNRLPFGRLGHEPGLMQLVNYYRGADKLCRKASLVKLIKTSPELAESCTWFPESYVIYPTNLKTPVAPAQDGIHPPLHSSRTDEREFFLASYNRKKEEGEGNVWIAKSSAGAKGEGILISSDATELLDFIDNQGQVHVIQKYLERPLLLEPGHRKFDIRSWVLVDHQFNIYLYREGVLRTASEPYHMDNFQDKTCHLTNHCIQKEYSKNYGKYEEGNEMFFEAFNRYLTSALNITLESSILLQIKHIIRSCLMSVEPAISTKHLPYQSFQLFGFDFMVDEELKVWLIEVNGAPACAQKLYAELCQGIVDIAIASVFPPPDAEQQPPQPATFIKL
Regarding B5, under setting [4], the melting temperature (Tm) was found to be 54.8 °C and the “unfolding enthalpy (calorimetric)” value stood at 173 kcal/mol.

B6: Malate dehydrogenase wild type, P80040 (protein)
chain: MRKKISIIGAGFVGSTTAHWLAAKELGDIVLLDFVEGVPQGKALDLYEASPIEGFDVRVTGTNNYADTANSDVIVVTSGAPRKPGMSREDLIKVNADITRACISQAAPLSPNAVIIMVNNPLDAMTYLAAEVSGFPKERVIGQAGVLDAARYRTFIAMEAGVSVEDVQAMLMGGHGDEMVPLPRFSTISGIPVSEFIAPDRLAQIVERTRKGGGEIVNLLKTGSAYYAPAAATAQMVEAVLKDKKRVMPVAAYLTGQYGLNDIYFGVPVILGAGGVEKILELPLNEEEMALLNASAKAVRATLDTLKSL
Turning to B6, under “Chloroflexus aurantiacus (strain ATCC 29366 / DSM 635 / J-10-fl), pH 7.5, CD, potassium phosphate 10 mM, reversible: No”, the Tm is 67.8 °C.

B7: Steroid Delta-isomerase wild type, P00947 (protein)
chain: MNTPEHMTAVVQRYVAALNAGDLDGIVALFADDATVEDPVGSEPRSGTAAIREFYANSLKLPLAVELTQEVRAVANEAAFAFTVSFEYQGRKTVVAPIDHFRFNGAGKVVSMRALFGEKNIHAGA
As for B7, under setting [5], the denaturant m value amounted to 4 kcal/mol/M and the unfolding free energy is 22 kcal/mol.

B8: wild type, B8YLY0 (protein)
chain: MKKVLMAFIICLSLILSVLAAPPSGAKAESVHNPVVLVHGISGASYNFFAIKNYLISQGWQSNKLYAIDFYDKTGNNLNNGPQLASYVDRVLKETGAKKVDIVAHSMGGANTLYYIKYLGGGNKIQNVVTLGGANGLVSSTALPGTDPNQKILYTSIYSLNDQIVINSLSRLQGARNIQLYGIGHIGLLSNSQVNGYIKEGLNGGGLNTN
With B8, the “denaturant midpoint (higher = more stable)” value (shortened to “denaturant midpoint”) (Bacillus subtilis, pH 0.8, 25 °C, GdnHCl, CD, KCl-HCl 20 mM, reversible: No) was found to be 3 M; the “denaturant midpoint” value (Bacillus subtilis, pH 0.8, 25 °C, GdnHCl, Fluorescence, KCl-HCl 20 mM, reversible: No) is 2.6 M; the “denaturant midpoint” value (Bacillus subtilis, pH 7, 25 °C, GdnHCl, CD, Sodium phosphate 20 mM, reversible: Yes) amounted to 1 M; the “denaturant midpoint” value (Bacillus subtilis, pH 7, 25 °C, GdnHCl, Fluorescence, Sodium phosphate 20 mM, reversible: Yes) is 0.8 M. Also, the Tm was found to be 75 °C (Bacillus subtilis, pH 0.8, CD, KCl-HCl 20 mM, reversible: No); 45 °C (Bacillus subtilis, pH 4, Fluorescence, Sodium acetate 50 mM, reversible: Yes); 53 °C (Bacillus subtilis, pH 5.8, DSC, NaAc 20 mM, reversible: No); 54.6 °C (Bacillus subtilis, pH 6, CD, phosphate buffer 20 mM); 47 °C (Bacillus subtilis, pH 7, CD, Sodium phosphate 20 mM, reversible: No). The unfolding free energy runs as follows: (Bacillus subtilis, pH 5.8, 25 °C, Urea, Fluorescence, NaAc 20 mM, reversible: Yes) 11.2 kcal/mol; (Bacillus subtilis, pH 5.8, 25 °C, Urea, NMR, NaAc 20 mM, reversible: Yes) 9.56 kcal/mol; (Bacillus subtilis, pH 7, 25 °C, Urea, Fluorescence, Sodium acetate 50 mM, reversible: Yes) 11.4 kcal/mol; (Bacillus subtilis, pH 7.2, 25 °C, GdnHCl, CD, Sodium phosphate 50 mM, reversible: Yes) 11.4 kcal/mol and 13.8 kcal/mol.

The values are drawn from FireProtDB.
